We go through 16 molecules from US5436138A, “Method for protein N-myristoylation” (Washington University, priority 1993, dated 1995).

The target in experiment [1] is T1, E. coli-derived S. cerevisiae NMT (Total E. coli NMT) (Saccharomyces cerevisiae, UniProt P14743, S2A).
T1 construct: intact 53 kDa (codon 2 Ser to Ala from cloning) plus 45 kDa truncated form
T1 sequence (P14743 1-455 S2A): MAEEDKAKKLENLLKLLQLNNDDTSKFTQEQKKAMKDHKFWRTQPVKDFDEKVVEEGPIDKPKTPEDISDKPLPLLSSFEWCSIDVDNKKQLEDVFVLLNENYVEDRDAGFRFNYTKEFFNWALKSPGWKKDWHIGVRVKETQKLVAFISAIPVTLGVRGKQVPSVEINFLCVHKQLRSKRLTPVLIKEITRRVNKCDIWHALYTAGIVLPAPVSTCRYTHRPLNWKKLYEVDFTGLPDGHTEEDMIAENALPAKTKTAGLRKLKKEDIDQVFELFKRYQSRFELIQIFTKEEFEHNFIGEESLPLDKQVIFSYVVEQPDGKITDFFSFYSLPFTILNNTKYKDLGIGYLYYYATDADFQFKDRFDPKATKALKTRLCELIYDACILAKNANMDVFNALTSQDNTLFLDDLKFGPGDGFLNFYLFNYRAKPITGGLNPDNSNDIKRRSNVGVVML
Briefly: coupled in vitro assay for NMT activity, Total E. coli NMT. It counts as biochemical. Particulars: 15 μM myristate; for Vmax, Total E. coli NMT: peptide substrate, percentage of Vmax with GNAAAARR and myristoyl-CoA; for Km: peptide substrate varied. On the procedure: (§1) In vitro assay system for NMT activity. To assess the peptide and acyl-CoA substrate specificities of E. coli-derived S. cerevisiae NMT, crude lysates or partially purified enzyme preparations were added to a coupled in vitro assay system [Towler and Glaser, Proc. Natl. Acad. Sci. USA 83, 2812-2816 (1986)]. The first step of this assay involves enzymatic conversion of radiolabeled fatty acids to their CoA thioesters by Pseudomonas acyl-CoA ligase. This ligase is largely nonspecific for fatty acid substrates [Shimizu et al., Anal. Biochem. 107, 193-198 (1980)]. Octapeptide substrates and NMT were then added to produce acylpeptides. Acylpeptides were purified from the reaction mixture by trichloroacetic acid/methanol precipitation and C18 reverse phase HPLC using a linear gradient of acetonitrile in water [Towler and Glaser, Proc. Natl. Acad. Sci. USA 83, 2812-2816 (1986)].
(§2) The peptide Km and Vmax values shown in the above Table I are averages obtained from 4- or 5-point Lineweaver-Burke plots. These plots were produced using data generated in at least three independent in vitro NMT assays. Varying concentrations of peptides were assayed with 15 μM myristate to determine peptide Km and Vmax values. […] Yeast NMT was from a 570 fold purified preparation [Towler et al., Proc. Natl. Acad. Sci. USA 84, 2708-2712 (1987)]. Synthetic peptide substrates are represented by their conventional one letter amino acid code. […] ND=not determined.

Experiment [2] concerns the target T2, 45 kDa E. coli NMT (NMT missing the NH2-terminal 39 residues) (Saccharomyces cerevisiae, UniProt P14743).
T2 construct: S2A lies in the removed part
T2 sequence (P14743 40-455): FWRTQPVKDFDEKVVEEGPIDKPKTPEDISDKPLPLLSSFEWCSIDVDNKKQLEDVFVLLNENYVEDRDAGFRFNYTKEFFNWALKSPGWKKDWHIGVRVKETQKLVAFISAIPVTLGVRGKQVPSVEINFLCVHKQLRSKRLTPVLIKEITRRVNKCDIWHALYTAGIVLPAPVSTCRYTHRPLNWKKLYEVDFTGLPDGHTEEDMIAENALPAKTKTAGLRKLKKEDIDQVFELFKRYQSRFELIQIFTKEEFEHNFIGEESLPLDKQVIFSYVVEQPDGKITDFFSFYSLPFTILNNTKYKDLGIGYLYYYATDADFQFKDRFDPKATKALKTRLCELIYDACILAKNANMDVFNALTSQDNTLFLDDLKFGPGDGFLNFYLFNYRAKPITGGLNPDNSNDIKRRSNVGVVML
Briefly: coupled in vitro assay for NMT activity, 45 kDa E. coli NMT. It counts as biochemical, S. cerevisiae. The conditions noted are these: for Km: peptide substrate varied; for Vmax, 45 kDa E. coli NMT: percentage of Vmax with GNAAAARR and myristoyl-CoA. On the procedure:
as §1
To obtain a homogenous preparation of the enzyme, E. coli-produced NMT was further purified by Mono S fast protein liquid chromatography (FPLC).
as §2

Experiment [3] deals with T3, Yeast NMT (partially purified from S. cerevisiae) (Saccharomyces cerevisiae, UniProt P14743).
T3 sequence (P14743 1-455): T1 sequence (P14743 1-455 S2A) with A2S
The experiment is described as follows: coupled in vitro assay for NMT activity, Yeast NMT. The conditions noted are these: for Vmax, Yeast NMT: percentage of Vmax with GNAAAARR and myristoyl-CoA; for Km: peptide substrate varied, 570 fold purified preparation. It counts as biochemical. On the procedure: as §1, §2

Experiment [4] has as its target T4, yeast NMT coexpressed with murine PK-A C-subunit in E. coli strain JM101 (Saccharomyces cerevisiae, UniProt P14743, S2A).
T4 construct: metabolic labeling in cells
Briefly: [3H]Fatty acid labeling of PK-A C-subunit produced in E. coli coexpressing yeast NMT1. The experiment is classed as cell-based, S. cerevisiae. Particulars: E. coli JM101 with NMT1 and wild type Cα plasmids after induction, SDS-PAGE and fluorography. On the procedure:
[^3 H]Fatty acid labeling of PK-A C-subunit produced in E. coli. Four ml cultures of the double transformants were shaken at 37° C. to an OD600 of 0.5 in LB broth+100 μg/ml ampicillin and 100 μg/ml kanamycin sulfate. Isopropyl-β-D-thiogalactopyranoside (IPTG) was then added to a final concentration of 1 mM to induce NMT production (see Results, below). When the cultures reached OD600 =1.0 (approximately 40 min later), nalidixic acid was added to a final concentration of 50 μg/ml to induce C-subunit production (see Results, below). [^3 H]Myristate (New England Nuclear; 39.3 Ci/mmol, 113 μCi added per ml of culture), [^3 H]palmitate (New England Nuclear; 30 Ci/mmol, 143 μCi/ml), or [^3 H]10-(propoxy)decanoate [Heuckeroth and Gordon, Proc. Natl. Acad. Sci. USA 86, 5262-5266 (1989)] (31.7 Ci/mmol, 800 μCi/ml) was added simultaneously with the nalidixic acid. Cultures were shaken for an additional 20 min at 37° C. and the cells were harvested by centrifugation. Lysates were prepared by boiling E. coli contained in the pellet for 10 min in 40 μL of a solution of 125 mM Tris, pH 8.0, 4% SDS, 20% glycerol, 10% β-mercaptoethanol, and 0.2M dithiothreitol. Cell debris was removed by centrifugation and 15 μl aliquots of the supernatant were subjected to SDS-PAGE [Laemmli, Nature 227, 680-685 (1970)] and subsequent fluorography using EN^3 HANCE (New England Nuclear) autoradiography enhancer. For Western blot analyses, 50 μg of reduced and denatured lysate proteins, prepared from unlabeled E. coli producing Gly^2 -C-subunit or Ala^2 -C-subunit, were separated by SDS-PAGE, electroblotted onto nitrocellulose [Burnette, Anal. Biochem. 112, 195-230 (1981)], and the filters probed with polyclonal, monospecific rabbit antisera raised against purified mouse C-subunit. Antigen-antibody complexes were visualized with ^125 I-protein A [Burnette, supra.].

[5] abbreviates: peptide substrate, 15 μM myristate.
The mark [6] stands for this setting: fatty acyl-CoA substrate, 60 μM GNAAAARR

What is called Km is the concentration of substrate that gives half-maximal velocity.

Positions count from the first letter of the chain named. Where a SMILES comes first, the peptide text is derived from it.

For `C[C@H](NC(=O)[C@H](C)NC(=O)[C@H](C)NC(=O)[C@H](CC(N)=O)NC(=O)CN)C(=O)N[C@@H](C)C(=O)N[C@@H](CCCNC(=N)N)C(=O)N[C@@H](CCCNC(=N)N)C(N)=O` (H-GNAAAARR-NH2), in experiment [1], the “Vmax, Total E. coli NMT” value amounted to 100%. The Km in experiment [2] (15 μM myristate) was determined as 62.5 µM. In addition, the “Vmax, 45 kDa E. coli NMT” value in experiment [2] (setting [5]) was 100%. In experiment [3] (setting [5]), the “Vmax, Yeast NMT” value came out at 100%.
Consider `C[C@H](NC(=O)[C@H](C)NC(=O)[C@H](CC(N)=O)NC(=O)CN)C(=O)N[C@@H](CO)C(=O)N[C@@H](C)C(=O)N[C@@H](CCCNC(=N)N)C(=O)N[C@@H](CCCNC(=N)N)C(N)=O` (H-GNAASARR-NH2), for which the “Vmax, Total E. coli NMT” value in experiment [1] worked out at 3.6%. Also, the “Vmax, 45 kDa E. coli NMT” value in experiment [2] (setting [5]) worked out at 4.9%. In addition, the “reduction in apparent Km” value in experiment [2] (relative to GNAAAARR-NH2, Mono S purified 45 kDa NMT) stood at 100 fold. For the same molecule, the “Vmax, Yeast NMT” value in experiment [3] (setting [5]) was found to be 3%.
Consider `CCCOCCCCCCCCCC(=O)SCCNC(=O)CCNC(=O)[C@H](O)C(C)(C)COP(=O)(O)OP(=O)(O)OC[C@H]1O[C@@H](n2cnc3c(N)ncnc32)[C@H](O)[C@@H]1OP(=O)(O)O` [11-oxamyristoyl-CoA], for which, in experiment [2] (setting [6]), the “Vmax, 45 kDa E. coli NMT” value is 450%. Also, the “Vmax, Yeast NMT” value in experiment [3] (setting [6]) is reported as 270%.
`CCCCCCCCCCCCCC(=O)SCCNC(=O)CCNC(=O)[C@H](O)C(C)(C)COP(=O)(O)OP(=O)(O)OC[C@H]1O[C@@H](n2cnc3c(N)ncnc32)[C@H](O)[C@@H]1OP(=O)(O)O` [Myristoyl-CoA]: the “Vmax, 45 kDa E. coli NMT” value in experiment [2] (setting [6]) amounted to 100%. For the same molecule, the “Vmax, Yeast NMT” value in experiment [3] (setting [6]) came to 100%.
Consider `CCCCCCCCCCCCCCCC(=O)SCCNC(=O)CCNC(=O)[C@H](O)C(C)(C)COP(=O)(O)OP(=O)(O)OC[C@H]1O[C@@H](n2cnc3c(N)ncnc32)[C@H](O)[C@@H]1OP(=O)(O)O` [Palmitoyl-CoA], for which the “Vmax, 45 kDa E. coli NMT” value in experiment [2] (setting [6]) is listed as 22.4%. In experiment [3] (setting [6]), the “Vmax, Yeast NMT” value was 21%.
On to `CCCOCCCCCCCCCC(=O)O` [[^3 H]10-(propoxy)decanoic acid, 10-(propoxy)decanoic acid], for which the “incorporation of [3H]fatty acid into the C-subunit of PK-A” value in experiment [4] is reported as “effective alternative substrate for NMT that could be incorporated into the C-subunit of PK-A”; in experiment [4] (listed as [^3 H]11-oxamyristate), “could also be labeled in a Gly^2 dependent manner”.
Consider ANAAAARR, for which the “Vmax, Total E. coli NMT” value in experiment [1] was “Not a substrate”. In addition, in experiment [2] (setting [5]), the “Vmax, 45 kDa E. coli NMT” value is “Not a substrate”. Besides, the “Vmax, Yeast NMT” value in experiment [3] (setting [5]) is listed as “Not a substrate”.
Regarding “ASSKSKPK [synthetic octapeptide, one letter amino acid code]”, in experiment [1], the “Vmax, Total E. coli NMT” value was “Not a substrate”. In addition, in experiment [2] (setting [5]), the “Vmax, 45 kDa E. coli NMT” value is given as “Not a substrate”. In experiment [3] (setting [5]), the “Vmax, Yeast NMT” value is recorded as “Not a substrate”.
With “GDAAAARR [synthetic octapeptide substrate, one letter amino acid code]”, in experiment [1], the Km is 645 µM and the “Vmax, Total E. coli NMT” value is on record as 4.2%. The “Vmax, 45 kDa E. coli NMT” value in experiment [2] (setting [5]) is given as below 2%. The “Vmax, Yeast NMT” value in experiment [3] (setting [5]) was below 2%.
Regarding “GNAADARR [synthetic octapeptide substrate, one letter amino acid code]”, in experiment [1], the Km turned out to be 503 µM and the “Vmax, Total E. coli NMT” value was found to be 4.9%. In addition, the “Vmax, 45 kDa E. coli NMT” value in experiment [2] (setting [5]) is listed as below 2%. In addition, the “Vmax, Yeast NMT” value in experiment [3] (setting [5]) is reported as below 2%.
Consider “GPAAAARR [synthetic octapeptide substrate, one letter amino acid code]”, for which, in experiment [1], the Km was 7100 µM and the “Vmax, Total E. coli NMT” value was determined as 21.6%. In addition, the “Vmax, 45 kDa E. coli NMT” value in experiment [2] (setting [5]) is below 2%. In addition, in experiment [3] (setting [5]), the “Vmax, Yeast NMT” value is recorded as below 2%.
Regarding “GSAAAARR [synthetic octapeptide substrate, one letter amino acid code]”, the Michaelis-Menten constant (Km) in experiment [1] turned out to be 697 µM; in experiment [3] (15 μM myristate), 1700 µM. Besides, the “Vmax, Total E. coli NMT” value in experiment [1] is on record as 27.6%. In experiment [3] (setting [5]), the “Vmax, Yeast NMT” value is 50%.
Regarding “GSAASARR [synthetic octapeptide substrate, one letter amino acid code]”, the results for the Km in experiment [1] and in experiment [3] (15 μM myristate) were 2.1 µM and 3 µM, respectively. In experiment [1], the “Vmax, Total E. coli NMT” value was 29%. For the same molecule, the “Vmax, Yeast NMT” value in experiment [3] (setting [5]) came to 34%.
For “GSSKSKPK [synthetic octapeptide substrate, one letter amino acid code]”, the Km in experiment [1] was 48.5 µM; in experiment [2] (15 μM myristate) it was 66 µM; in experiment [3] (15 μM myristate) it was 40 µM. Besides, the “Vmax, Total E. coli NMT” value in experiment [1] amounted to 33%. Further, the “Vmax, 45 kDa E. coli NMT” value in experiment [2] (setting [5]) worked out at 52%. The “Vmax, Yeast NMT” value in experiment [3] (setting [5]) was determined as 43%.
As for “GYAAAARR [synthetic octapeptide, one letter amino acid code]”, in experiment [1], the “Vmax, Total E. coli NMT” value is listed as below 2%. The “Vmax, 45 kDa E. coli NMT” value in experiment [2] (setting [5]) is on record as below 2%. For the same molecule, the “Vmax, Yeast NMT” value in experiment [3] (setting [5]) is listed as “Not a substrate”.
Take MGNAAAARR: in experiment [1], the “Vmax, Total E. coli NMT” value was “Not a substrate”. The “Vmax, 45 kDa E. coli NMT” value in experiment [2] (setting [5]) was “Not a substrate”. The “Vmax, Yeast NMT” value in experiment [3] (setting [5]) is reported as “Not a substrate”.
